Measurements as given in paper doi:10.1101/2024.11.27.625426 (bioRxiv, 2024).

Target: N1-CA09-sNAp, stabilized neuraminidase protein of A/California/04/2009 (H1N1) (influenza A virus A/California/04/2009 (H1N1)) (UniProt C3W5S3)
Assay: cryo-EM structure

N1-CA09-sNAp, stabilized neuraminidase protein of A/California/04/2009 (H1N1) (from UniProt C3W5S3 1-469) (enzyme)
stoichiometry N: 4 protomers
